Experimental data: the supplement of paper PMC9170038

System: K4 kissing-loop RNA reporter
Assay: apparent KD of K4 kissing-loop reporter; higher = weaker reporter binding
Conditions: Eterna round: R107
Method: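 RNA-MaP round R107: designed RNA switches with theophylline, tryptophan, arginine or FMN aptamers are transcribed on-chip within common flanks. They are titrated with a labelled K4 kissing-loop RNA reporter in RNA-MaP buffer (100 mM Tris pH 7.5, 80 mM KCl, 4 mM MgCl2), without ligand or with the indicated ligand. Median apparent KD per design.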

[1] = input ligand: theophylline 20 uM
[2] = input ligand: tryptophan 2.4 mM
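Also: bound reporter read as fluorescence of individual clusters on recovered sequencing chips by microscopy, with normalized cluster intensities fitted with a binding model.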

Sequence	apparent KD of K4 kissing-loop reporter (input ligand: FMN 200 uM) [nM]	apparent KD of K4 kissing-loop reporter (input ligand: arginine 13.2 mM) [nM]	apparent KD of K4 kissing-loop reporter (input ligand: none) [nM]	apparent KD of K4 kissing-loop reporter [1] [nM]	apparent KD of K4 kissing-loop reporter [2] [nM]
AGGCCCGGCCGAAAGGCCGGGCCAAGAGAUACCAGCAGCGAAAGCUGCCCUUGGCAGCUCACUUAGUGAUGUUAAGAAUAGAACA [SS Theo A Tesla 1]	538	464	375	485	390
AGGGAUGAUGGAUAAAUAAACAAAAGGGAUACCAGUCAAAUAAUAGGCCCUUGGCAGCUUUAGAUCAGUGAUGUUGAAGAUAUUG [Theophylline A Same State; Euphoria Solution]	84.1	127	93	159	78.5
AGGGAUGAUGGAUAAAUAAACAAAGGAGAUACCAGUCAAAUAAUAGGCCCUUGGCAGCUUCAGAUCAGUGAUGUUGAAGAUAUUG [#09 K4 Theophylline A Same State]	109	67.1	139	148	110
AGGGAUGUUAAAGGAUAUAGAAAGUGAUGUUAGAAAGUGAGUGAUGUUGAUGUAAGUGAUGUUAUGUUAGAAGGUUAACAAAACG [ab]	229	120	200	215	170
AGGGUAAGGCGUUAACAUGACACCUGGGAAGGAGCGCGGUACACCGCAGGUAGGUCGCCCAGUGAUGUUGGGCGUAAGUAUGAGU [KL-XArg-A22]	137	179	185	180	137
AGGUCACCACUACAGUGAUGUUGUAGGGAGCAGGAUAUGCAGAAAUGCAGAAGGGCUCGCUCCCGGUGACCGAAUGAAACAUUCA [Omei KL FMN A SS A v6]	432	258	318	289	282
AGGUGCUACGGAAGGAGCGCACCAGUGAUGUUGGUGUGUGACCGUGACAUGGCAGUCAAGGUGCAGGUAGGUCGCCGUGGCCAUA [Rigela]	138	135	140	156	136
AGUAAUGAGUGAUGUUCAAUUAGUAAGGAUACCAGUAAUUCAAAAUGCCCUUGGCAGCUUAACGCUACCAAUAGAUUAAUAAUGG [First try - Theophylline A]	128	180	119	182	95.5
AGUAGUUGGACGGCCGCCACUAGAACGCCUUUGCCAAAGGCAGAGGACUAGAGUGAUGUUCUAGCUAGGACCGGGUCCAACUACA [Omei KL Tryp B SS A v4]	224	232	308	127	1220
AGUAGUUGGACGGCCGCCACUAGAACGGCUUUGCCAAAGGCAGAGCACUAGAGUGAUGUUCUAGCUAGGACCGGGUCCAACUACA [Omei KL Tryp B SS A v3]	662	204	191	403	773
AGUCCGCUCCAAGGAUAUAGUCCGGCUGCGCGUCAGUGAUGUUGAAGAAGUAUCGCGUCUCUAUAGCUAGAAGGUGGCGCAAUUG [theeternabot_sameState_KL_FMN_B_20]	715	471	989	696	782
AGUGAUAUAUGAGGAUAUGGGUUUGUUAAUGAGUUAUUUUUAGUGUUGUUUGGUUAGUGAUGUUAUUUAGAAGGCGUGAGUGAUG [rrwswwmjmullin]	93.7	89.4	81.9	111	76.5
AGUGAUGUUGUGUUAUGUUAGGGAAGUGAUCGAGGACCGGUACGGCCGCCACUCGAGUGAUGAGUGAGUGAUGUUUGUUUAGGGA [yytmullin]	1030	670	1610	1070	590
AGUGCACUGUCAGGAUAUGUACAGUGAUGUUGUGUAUGUCAGCAAGUCAAAGACUUGCUCUUCUGUGCAGAAGGGACUGUGUACA [Omei KL FMN B Exc A v5]	755	464	628	506	554
AGUGGUGUAUCUUUUAAGAGUGAUGUUUUUCGAGGACCGGUACGGCCGCCACUCGAGUGAUGAGAGCGUCGUUGUGGUGAUUAGU [#15 K4 Tryptophan A Exclusion]	814	582	877	860	479
AUAGGAGUGAUGUUCCUUAGUUUCUCCGAUACCAGUAUGGAAACAUACCCUUGGCAGCGGGAAACCGCUGAUUAGGAAACUAGUC [Theophylline A K4 7]	256	271	282	242	223
AUCAUUGAGUGAUGUUCAAUGGGUUUUCCCAAGGAUAUUCGGAGCUGAAGAAGGUGGCCCUCGAUAUCAGUAUCAACCUGAAAGC [theeternabot_exclusion_KL_FMN_A_11]	360	340	381	388	243
AUCGAUAUCAGAGGAUAUGCUUAAUUGAUUUAUUAUUAUUUAUUAUGCAGUGAUGUUGCAUUUUUUGCAGAAGGCUGAUUUCGAA [JR_SSFMNB_Sub022]	112	150	126	137	117
AUGCGCGUGCGAUGAAAAUCGCACGCGCAUCGAGGACCGGUACGGCCGCCACUCGCUCGCGCCGAGUGAUGUUCGGCCGGCGAAC [#2 Same State - Tryptophan A Attempt #4 (HarryS)]	278	268	267	217	506
AUGGUGGAGGAGUGAUGUUCUUGGAGUAGGUAGGAUAUGAGUGAUGUUAGAAGGAUCGGAGUGAUGUUCCAGGUGGUUGUGUUGU [KL-SSFMN-A2]	570	303	765	453	412
AUGGUUGUCGUAGGAUAUGUAGGUAAUUCCUAUAGCAGUGAUGUUGCUAAUAUCUUGGAAGAAGGAACAGAAGGACGAUAACCAC [KL-SSFMN-B1 #analogue]	123	109	124	109	106
